T1: purified rat cytosolic TrxR (rat, UniProt O89049 1-499, selenocysteine at 498)
T1 sequence (looked up): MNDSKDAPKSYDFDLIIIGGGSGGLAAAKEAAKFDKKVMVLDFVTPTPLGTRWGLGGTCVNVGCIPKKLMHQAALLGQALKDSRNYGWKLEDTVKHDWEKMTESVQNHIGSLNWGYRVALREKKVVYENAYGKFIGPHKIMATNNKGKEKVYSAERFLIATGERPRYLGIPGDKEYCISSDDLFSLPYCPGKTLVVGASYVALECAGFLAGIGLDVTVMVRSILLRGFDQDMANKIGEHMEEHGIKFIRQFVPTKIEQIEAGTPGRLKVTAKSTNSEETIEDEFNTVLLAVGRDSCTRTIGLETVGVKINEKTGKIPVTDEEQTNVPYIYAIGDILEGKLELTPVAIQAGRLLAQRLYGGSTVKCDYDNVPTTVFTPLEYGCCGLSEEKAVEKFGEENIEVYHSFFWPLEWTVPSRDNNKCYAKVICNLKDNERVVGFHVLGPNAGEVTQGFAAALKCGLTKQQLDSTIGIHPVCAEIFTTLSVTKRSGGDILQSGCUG


What was measured:
Experiment in all cases: cross-linking
[1] = molecular target: Human recombinant TrxR1 mutant enzyme (Sec498Cys) (human) (UniProt Q16881)
cross-linking = molecular target: the molecule itself
[2] = molecular target: T1, purified rat cytosolic TrxR

Row | stoichiometry N [1] | binding result [2] | Molecule | stoichiometry N (cross-linking)
1 | 2 | – | Human recombinant TrxR1 mutant enzyme (Sec498Cys) (from UniProt Q16881-5 1-499) | –
2 | – | binds | recombinant human Trx1 (natural protein) MVKQIESKTAFQEALDAAGDKLVVVDFSATWCGPCKMIKPFFHSLSEKYSNVIFLEVDVDDCQDVASECEVKCMPTFQFFKKGQKVGEFSGANKEKLEATINELV | 2
